Data as given in patent US6417168.
Each block holds one substance with its values, some of them ahead of it.

Key:
[1] = molecular target: human epidermal growth factor receptor (EGFR), full-length wild type (human) (UniProt P00533); assay: cell-based or functional assay
[2] = molecular target: ΔEGFR, extracellular-deleted mutant human EGFR (EGFRvIII) (human) (UniProt P00533); assay: cell-based or functional assay

- EGF-induced down-regulation of cell surface EGFR (flow cytometry), maximum reduction [1]: 20 to 25%
Substance: N691stop (truncated rat cellular p185, stop codon for Thr^691) (from UniProt P06494 23-690) (receptor)

- EGF-induced down-regulation of cell surface EGFR (flow cytometry), maximum reduction [1]: 20 to 25%
Substance: N757 (Nneu K757M, ATP-binding mutant of rat cellular p185) (from UniProt P06494 23-1257) (receptor)

- apoptosis of U87/T691 cells, serum deprivation combined with radiation (DAPI) [1]: 33%
- inhibition of anchorage-independent growth in U87MG parental cells lacking ΔEGFR [1]: 75.2%
- phosphorylation content of immunoprecipitated p155ΔEGFR monomers (scanning densitometry, PY-20 blot) [2]: 33.7%
- soft agar growth of U87MG.ΔEGFR/T691s cells, reduction compared to U87MG.ΔEGFR cells [2]: 45%
- soft agar growth of U87MG.ΔEGFR/T691s cells, reduction compared to parental U87MG cells [2]: 41.3%
Substance: T691stop neu (truncated rat oncogenic p185neu, stop codon at amino acid 691, val→glu at amino acid 664) (from UniProt P06494 23-687) (receptor)

- co-downregulation of cellular p185 with EGFR upon EGF treatment (flow cytometry, M1 cells) [1]: 20%
Substance: wildtype cellular rat p185 (Nneu) (from UniProt P06494 23-1257) (receptor)
